Where two headings read alike, the source gives them in different places.
What was measured:
[1] = tested on: P. falciparum-infected erythrocytes; experiment: Hydrolysis of serum-derived and Albumax II-derived parasite cultures (NEFA); format: cell-based, human; details: 50 nM, 6 h, schizont-enriched culture
Description: Parasites were grown in medium containing either 8% human serum (iRBC/S) or 0.5% Albumax II® (iRBC/A). Cultures were semi-synchronized so that they contain mainly mature parasites at the time of the experiment. Both cultures (2.5-3% parasitaemia) were then washed and cells were re-suspended at 50% haematocrit in RPMI 0.05% BSA with or without 50 nM of recombinant GX sPLA2, and incubated for 6 h in culture conditions. Non-infected RBCs (red blood cells) and human serum were processed similarly. Cell supernatants and serum were frozen at −20° C.; erythrocyte ghosts were prepared and frozen. NEFAs in each sample were measured in duplicate upon thawing, using the NEFA-C kit (WAKO). NEFA amount in healthy RBCs (RBC) and in infected cultures (iRBC) is expressed as the sum of NEFAs from paired ghosts and supernatants. Values are the mean of the duplicate measurement, subtracted for values in the absence of enzyme. The experiment was repeated twice and gave similar qualitative results. Results from one experiment are shown;
Parasites were grown for several cycles in culture medium supplemented either with 8% human serum or with 0.5% Albumax II®. Cultures were semi-synchronized by Sorbitol treatment 2-3 days prior to the experiment. […] NEFAs were measured using the NEFA-C kit (WAKO). […]

[2] = tested on: P. falciparum FcB1/Colombian strain; experiment: Anti-Plasmodium activity assay (dose-response, 3H-hypoxanthine incorporation), culture with human serum; format: cell-based
Description: (§1) The chloroquine-resistant P. falciparum FcB1/Colombian strain was used. Under the following culture conditions, the in vitro life cycle of the FcB1 strain was 48 hours. Cultures were grown in complete medium consisting of RPMI 1640 (Life Technologies, Inc.) supplemented with 11 mM glucose, 27.5 mM NaHCO3, 100 UI/mL penicillin, 100 μg/mL streptomycin, adjusted to pH 7.4 before addition of heat-inactivated human serum (A+ blood group, 8% final) or Albumax II® (0.5% final), according to the procedure of Trager and Jensen (1976). Parasites were routinely grown at 37° C. in human A+ RBCs (Red blood cells) at a 2% haematocrit and 2-6% parasitemia, in a 3% CO2, 6% O2 and 91% N2 atmosphere. Semi-synchronized cultures were established by Sorbitol (Lambros) treatment. Highly synchronized cultures (4 hour-window synchronization) were obtained by successive Plamion (Pasvol) and Sorbitol treatments. Parasitaemia and stage distribution were determined by optical examination of Diff-Quick stained culture smears. Parasitaemia (expressed in percent) is hundred times the number of parasitized erythrocytes divided by the total number of erythrocytes.
(§2) Dried preparations of the purified recombinant human sPLA2s were re-suspended at high concentration (usually 50 μM) in RPMI 0.05% BSA, and then tested individually for their capacity to inhibit the in vitro intra-erythrocytic development of P. falciparum. Dose-response assays based on ^3H-hypoxanthine incorporation by growing parasites were performed as in Guillaume et al. (2004). Radioactivity was measured with a 1450 Microbeta counter (Wallac, Perkin Elmer). Percentage of growth inhibition was calculated from the parasite-associated radioactivity compared with control without sPLA2. Values for the IC50 were determined from dose-response curves.

[3] = Specific activities of sPLA2s on human plasma (NEFA release, NEFA-C kit); format: biochemical
Description: Kinetic analysis of human plasma hydrolysis by sPLA2s was performed by mixing on ice 50 μL of crude plasma with recombinant sPLA2s at various final concentrations (respectively 2×, 5× and 10× the IC50 value). At time zero, the mixture was transferred to 37° C. Samples (7 μL) were taken after 5, 15, 30 and 60 minutes of incubation and quickly frozen at −20° C. An aliquot of plasma without enzyme was similarly processed. Concentration of non-esterified fatty acids (NEFAs) in each sample was measured by a discontinuous enzymatic method using the NEFA-C test kit from WAKO, following manufacturer's instructions. The amount of NEFAs in each enzyme-containing plasma sample was subtracted for NEFAs in enzyme-free plasma sample. Specific activity for each of the sPLA2s was determined from the linear part of the curve [NEFA]=f(t). Experiment was repeated three times with plasmas from different donors and different batches of sPLA2s.
Specific activities of sPLA2s on human plasma. Hydrolysis of plasma phospholipids by human and venom sPLA2s was assayed using different incubation times and enzymes concentrations. Hydrolysis was assessed by measuring the amount of NEFAs in samples using the colorimetric assay developed by WAKO (NEFA-C kit). Enzymatic production of NEFAs was corrected for endogenous production of NEFAs measured in the absence of sPLA2. Specific activity for each of the sPLA2s was determined from the linear part of the kinetic curve. Values are the mean of three independent experiments. SD: standard deviation. Anti-P. falciparum activities (IC50) of the respective sPLA2s are given for comparison.

[4] = tested on: P. falciparum; experiment: Anti-Plasmodium activity assay in Albumax II (serum substitute); format: cell-based; details: Albumax II
Description: as §1, with “Highly synchronized cultures (4 hour-window synchronization) were obtained by successive Plamion (Pasvol) and Sorbitol treatments.” left out, “Parasitaemia (expressed in percent) is hundred times the number of parasitized erythrocytes divided by the total number of erythrocytes.” left out
as §2, with “Dose-response assays based on ^3H-hypoxanthine incorporation by growing parasites were performed as in Guillaume et al. (2004).” left out, “curves. […]” for “curves.”

[5] = 48 h-hydrolysis of plasma by sPLA2s at IC50 concentrations (NEFA); format: biochemical, human; details: GX 3 nM, GIIF full length or truncated 15 nM, bee venom 15 pM; 37° C.
Description: Crude human plasma was incubated with 3 nM of recombinant human GX sPLA2 (⋄), 15 nM of the full length (▪) or truncated (□) recombinant human GIIF sPLA2, and 15 pM of the bee venom sPLA2 (♦), for 48 h at 37° C. Aliquots were taken at times 0 h, 6 h, 22 h, 30 h and 48 h of incubation. NEFAs in each aliquot were measured using the NEFA-C kit (WAKO);
Crude human plasma was incubated with 3 nM of recombinant human GX sPLA2, 15 nM of the full length or the truncated form (IIFΔC) of recombinant human GIIF sPLA2, and 15 pM of the bee venom sPLA2, for 48 h at 37° C. Aliquots (7 μL) were taken at times 0 h, 6 h, 22 h, 30 h and 48 h of incubation. NEFAs were measured in each aliquot by using the NEFA-C kit (WAKO). Experiment was repeated twice with different plasmas.

B1: X: recombinant human group X secreted phospholipase A2 (protein, UniProt O15496 43-165, looked up)
Group 10 secretory …: GILELAGTVGCVGPRTPIAYMKYGCFCGLGGHGQPRDAIDWCCHGHDCCYTRAEEAGCSPKTERYSWQCVNQSVLCGPAENKCQELLCKCDQEIANCLAQTEYNLKYLFYPQFLCEPDSPKCD
- NEFA release from Albumax II-derived versus serum-derived parasite culture [1]: released at the same rate
- IC50 ([2]; Table II, read-out: IC50 (nM), anti-P. falciparum activity given for comparison): 2.9 ± 2.4 nM
- IC50 ([2]; culture in human red blood cells and serum, mean of independent dose-response assays, read-out: IC50 ± SD (anti-P. falciparum activity)): 2.9 ± 2.4 nM
- inhibition of P. falciparum development in vitro ([2]; standard P. falciparum cultures with serum): active against P. falciparum
- activity on plasma relative to GIIF sPLA2 ([3]; ratio of specific activities): 9 times
- activity on plasma relative to GV sPLA2 ([3]; ratio of specific activities): 30 times
- Specific activity ± SD (μmol NEFA/min × mg enzyme) ([3]; whole human plasma, 37° C., linear part of kinetic curve, mean of three experiments): 8.23 ± 0.92 μmol NEFA/min × mg enzyme
- inhibition of Plasmodium growth in Albumax II [4]: does not efficiently inhibit Plasmodium growth
- hydrolysis of plasma over 48 h [5]: the most active

Reference: US8709741B2, “Methods of diagnosing a plasmodium infection” (priority 2009, dated 2014)
